Experiment [1] addresses GST-EEA1_(36-91) (UniProt Q15075). Briefly: BLI; BLItz system (ForteBio); 0.5 µM GST-Rabaptin5_(551-862) or GST-EEA1_(36-91) immobilised on anti-GST sensors; GppNHP-loaded Rab5 or mUbRab5 at several concentrations in solution; 50 mM Tris-HCl, 150 mM NaCl, 10 mM MgCl2, 1 mM GppNHP; global fit, Kd = koff/kon. A general note: BLI is a label-free optical method that tracks binding on a fibre tip over time.

The target of experiment [2] is GST-Rabaptin5_(551-862) (UniProt Q15276). Described as above.
In experiment [3] the target is EEA1 (Homo sapiens) (UniProt Q15075). To be noted: cited from earlier work.

As a reminder, the Kd is the equilibrium constant for the complex coming apart. In general, koff refers to a measure of how fast the partners let go of each other. The low end stands for a long-lived complex, the high end for a short-lived complex. What is called kon is the rate constant with which the complex forms. Low readings indicate slow association, high ones fast association.

In experiment [1], “Rab5 (unmodified Rab5a) (from UniProt P20339 1-215) (natural protein)” returned a Kd of 5.8 µM, a koff of 0.0026 s⁻¹ and a kon of 450 M⁻¹ s⁻¹. Moreover, in experiment [2], the dissociation constant (Kd) turned out to be 8 µM, the koff worked out at 0.0022 s⁻¹ and the kon came to 660 M⁻¹ s⁻¹.

Substance “mUbRab5_(K165), chemically conjugated monoubiquitinated Rab5 (ubiquitin G76C disulfide-linked to Rab5 K165C) (from UniProt P0CG48 1-76)” came in with a Kd in experiment [1] of 4.7 µM.

With Rab5 (from UniProt P20339), in experiment [3], the Kd is 2.4 µM.

“mUbRab5_(K140), chemically conjugated monoubiquitinated Rab5 (ubiquitin G76C disulfide-linked to Rab5 K140C) (from UniProt P0CG48 1-76)”: the values for the Kd in experiment [1] and in experiment [2] were 108 µM and 37.7 µM, respectively.

For “mUbRab5_(K116), chemically conjugated monoubiquitinated Rab5 (ubiquitin G76C disulfide-linked to Rab5 K116C) (from UniProt P0CG48 1-76)”, the Kd came out at 18.4 µM in experiment [1] and 8 µM in experiment [2].
